These results are taken from the Immune Epitope Database (IEDB).

Where only a bound is given, the exact number is not on record here.

The target in one assay is HLA-A*02:01. Kind of assay: IEDB peptide-MHC binding, purified MHC/direct/fluorescence; filed as Kd, often an IC50 or EC50 that approximates it; ≥ and ≤ were set here for values at or beyond the usual limits of such assays.
A further assay has as its target HLA-A*02:12. The assay is described as above. The note with it: source organism: Ravn virus - Ravn, Kenya, 1987.
The next assay deals with HLA-A*69:01. The assay is described as above.
The next assay has as its target HLA-A*03:01. Described as above.
In another assay the target is HLA-A*26:01. Put plainly: IEDB peptide-MHC binding, purified MHC/competitive/fluorescence; filed as Kd, often an IC50 or EC50 that approximates it; ≥ and ≤ were set here for values at or beyond the usual limits of such assays. To be noted: source organism: Lechiguanas virus.
Assay [1] deals with HLA-B*18:01. Described as above. To be noted: source organism: Lechiguanas virus.
The target in the next assay is HLA-B*27:03. The assay is described as above. To be noted: source organism: Lechiguanas virus.
The next assay has as its target HLA-B*39:01. Described as above. To be noted: source organism: Lechiguanas virus.
Another assay has as its target HLA-B*46:01. The description is as above. The note with it: source organism: Lechiguanas virus.
The target of another assay is HLA-B*51:01. Described as above. To be noted: source organism: Lechiguanas virus.
Assay [2] has as its target HLA-B*57:01. The assay is described as above. To be noted: source organism: Lechiguanas virus.
Assay [3] has as its target HLA-A*31:01. Put plainly: IEDB peptide-MHC binding, purified MHC/competitive/radioactivity; filed as Kd, often an IC50 or EC50 that approximates it; ≥ and ≤ were set here for values at or beyond the usual limits of such assays. The note with it: source organism: Dengue virus 2 Jamaica/1409/1983.
The next assay concerns the target HLA-A*68:01. Described as above. To be noted: source organism: Dengue virus 2 Jamaica/1409/1983.
Assay [4] deals with HLA-B*57:01. Described as above.
For assay [5], the target named is HLA-B*58:01. The description is as above.
The next assay deals with HLA-B*53:01. Described as above.
Another assay addresses HLA-A*01:01. Put plainly: IEDB peptide-MHC binding, purified MHC/direct/fluorescence; filed as Kd, often an IC50 or EC50 that approximates it; ≥ and ≤ were set here for values at or beyond the usual limits of such assays. The note with it: source organism: Mammarenavirus lassaense.
For a further assay, the target named is HLA-A*11:01. The assay is described as above. The note with it: source organism: Mammarenavirus lassaense.
Assay [6] concerns the target HLA-A*31:01. The assay is described as above. The note with it: source organism: Mammarenavirus lassaense.
Assay [7] addresses HLA-B*08:01. Described as above. The note with it: source organism: Mammarenavirus lassaense.
For assay [8], the target named is HLA-B*18:01. The assay is described as above.
For the next assay, the target named is HLA-B*27:05. The assay is described as above. The note with it: source organism: Mammarenavirus lassaense.
A further assay addresses HLA-B*40:01. The assay is described as above. The note with it: source organism: Mammarenavirus lassaense.
The next assay addresses HLA-B*44:02. The assay is described as above.
The target in the next assay is HLA-B*48:01. The description is as above.
For assay [9], the target named is HLA-B*58:01. Described as above.
In the next assay the target is HLA-B*15:17. The description is as above.
Assay [10] deals with HLA-B*57:01. The description is as above.
Another assay addresses HLA-A*32:01. Kind of assay: IEDB peptide-MHC binding, purified MHC/competitive/radioactivity; filed as Kd, often an IC50 or EC50 that approximates it; ≥ and ≤ were set here for values at or beyond the usual limits of such assays.
The target in another assay is HLA-A*30:01. The assay is described as above. The note with it: source organism: Vaccinia virus WR.
For assay [11], the target named is HLA-B*08:01. Described as above. The note with it: source organism: Vaccinia virus WR.
In the next assay the target is HLA-B*15:01. The description is as above. To be noted: source organism: Vaccinia virus WR.
The target in another assay is HLA-B*15:03. The assay is described as above. To be noted: source organism: Vaccinia virus WR.
The target of another assay is HLA-A*23:01. The assay is described as above. To be noted: source organism: Dengue virus 2 Jamaica/1409/1983.
Another assay has as its target HLA-A*24:02. The assay is described as above. The note with it: source organism: Dengue virus 2 Jamaica/1409/1983.
Setting [12] is: source organism: Marburg virus - Musoke, Kenya, 1980.
The mark [13] stands for this setting: source organism: Dengue virus 2 Jamaica/1409/1983.
Where [14] appears, read: source organism: Dengue virus 1 Brazil/97-11/1997.
The mark [15] stands for this setting: source organism: Mammarenavirus lassaense.
[16] abbreviates: source organism: Dengue virus 4 Philippines/H241/1956.
[17] abbreviates: source organism: Coxiella burnetii.
Setting [18] is: source organism: Giardia lamblia ATCC 50803.
[19] abbreviates: source organism: Yellow fever virus 1899/81.
The mark [20] stands for this setting: source organism: Dengue virus 2 Peru/IQT2913/1996.
[21] abbreviates: source organism: Dengue virus 1 Singapore/S275/1990.
The mark [22] stands for this setting: source organism: Vaccinia virus WR.
Where [23] appears, read: source organism: dengue virus type 1.
Setting [24] is: source organism: Rickettsia prowazekii.

For orientation: Kd means a measure of binding affinity in units of concentration. As for ALKEAIEMV, the Kd with HLA-A*02:01 (setting [12]) is 127 nM; with HLA-A*02:12, 4 nM; with HLA-A*69:01 (setting [12]), 1800 nM.

As for AMPKTIYEL, the Kd in the assay with HLA-A*02:01 (source organism: Orthohantavirus andesense) is 37.3 nM; with HLA-A*03:01 (source organism: Lechiguanas virus) it was at least 20000 nM; with HLA-A*26:01, at least 20000 nM; with HLA-B*18:01 [1], at least 20000 nM; in the assay with HLA-B*27:03 it was at least 20000 nM; with HLA-B*39:01 it was at least 20000 nM. Further, the Kd in the assay with HLA-B*46:01, with HLA-B*51:01 and with HLA-B*57:01 [2] was at least 20000 nM throughout.

Turning to ASSMVNGVVR, the Kd with HLA-A*31:01 [3] was at least 44100 nM; with HLA-A*68:01 it was 47.7 nM; in the assay with HLA-B*57:01 [4] (setting [13]) it was 1400 nM; with HLA-B*58:01 [5] (setting [13]) it was 2060 nM.

Regarding AVFVDENQW, the Kd with HLA-B*57:01 [4] (setting [14]) came to 0.913 nM.

In the case of EAVEDSRFW, the Kd stood at 13 nM with HLA-B*53:01 (setting [13]) and 22.2 nM in the assay with HLA-B*57:01 [4] (setting [13]).

For the sequence FTSVGKLVHQ, the Kd in the assay with HLA-B*57:01 [4] (setting [14]) worked out at 2390 nM; with HLA-B*58:01 [5] (setting [14]), 1360 nM.

FVRSSPANF: the Kd with HLA-A*01:01, in the assay with HLA-A*02:01 (setting [15]), with HLA-A*03:01 (setting [15]), in the assay with HLA-A*11:01, with HLA-A*31:01 [6] and with HLA-A*69:01 (setting [15]) was at least 20000 nM throughout. Moreover, the Kd with HLA-B*08:01 [7] is 2100 nM; with HLA-B*18:01 [8] (setting [15]), at least 20000 nM; with HLA-B*27:05 it was at least 20000 nM; with HLA-B*40:01, at least 20000 nM; with HLA-B*44:02 (setting [15]) it was at least 20000 nM; with HLA-B*48:01 (setting [15]) it was at least 20000 nM. Further, the Kd with HLA-B*58:01 [9] (setting [15]) was at least 20000 nM.

Regarding GSSIGKMFEA, the Kd in the assay with HLA-B*57:01 [4] (setting [14]) was 853 nM; in the assay with HLA-B*58:01 [5] (setting [14]), 3000 nM.

Take HMEGVFHTMW: the Kd with HLA-B*53:01 (setting [16]) was 34.6 nM.

As for HSGDSSCAF, the Kd was 252 nM with HLA-B*15:17 (setting [17]), at least 20000 nM with HLA-B*57:01 [10] (setting [17]) and 750 nM with HLA-B*58:01 [9] (setting [17]).

Turning to IPQWQPSKGW, the Kd with HLA-B*53:01 (source organism: Dengue virus 3 Martinique/1243/1999) was 73.1 nM.

On to KAAVEDEEFW, for which, in the assay with HLA-B*58:01 [5] (source organism: Dengue virus 3 Sri Lanka/1266/2000), the Kd was determined as 11.4 nM.

Consider KAMSTPFSL, for which the Kd amounted to 1.3 nM with HLA-B*15:17 (setting [18]), 84.9 nM with HLA-B*57:01 [10] (setting [18]) and 15.3 nM with HLA-B*58:01 [9] (setting [18]).

Turning to KSAHGSPTF, the Kd turned out to be 4.9 nM in the assay with HLA-B*15:17 (setting [19]) and 1260 nM with HLA-B*57:01 [10] (setting [19]).

For the sequence KSYAQMWSL, the Kd worked out at 6.3 nM with HLA-A*32:01 (setting [20]), 5.58 nM in the assay with HLA-B*57:01 [4] (setting [20]) and 3.99 nM with HLA-B*58:01 [5] (setting [20]).

On to KTSLCLMMML, for which the Kd in the assay with HLA-B*57:01 [4] (source organism: Dengue virus 3 China/80-2/1980) is 18.8 nM.

On to KTSVGVNMCT, for which the Kd in the assay with HLA-B*57:01 [4] (setting [21]) stood at 8160 nM; with HLA-B*58:01 [5] (setting [21]), 1810 nM.

For LALKEFKEF, the Kd with HLA-B*53:01 (setting [13]) stood at 1840 nM.

LSSTRVPNYN: the Kd with HLA-B*57:01 [4] (setting [16]) was 5970 nM; with HLA-B*58:01 [5] (setting [16]), 202 nM.

Consider MCIKYTACM, for which the Kd in the assay with HLA-A*30:01 was at least 26600 nM; with HLA-A*32:01 (setting [22]), 16200 nM; in the assay with HLA-B*08:01 [11], 7.75 nM; with HLA-B*15:01, 954 nM; with HLA-B*15:03 it was 51.9 nM.

Consider NSSVNVSLTA, for which the Kd is 433 nM with HLA-B*57:01 [4] (setting [13]) and 10 nM with HLA-B*58:01 [5] (setting [13]).

For the sequence REDQWCGSL, the values for the Kd with HLA-B*18:01 [8] (setting [23]) and with HLA-B*44:02 (setting [23]) were 11600 nM and at least 20000 nM, respectively.

RLSAAIGKAW: the Kd in the assay with HLA-B*58:01 [5] (setting [21]) was 6.2 nM.

RRWCFDGPR showed a Kd with HLA-B*48:01 (source organism: West Nile virus) of at least 20000 nM.

In the case of RTLGSFTWF, the Kd in the assay with HLA-B*15:17 (setting [15]) was at most 1 nM; with HLA-B*58:01 [9] (setting [15]), 13.8 nM.

In the case of SQVKCCHYF, the Kd with HLA-A*30:01 came to 80.6 nM; in the assay with HLA-A*32:01 (setting [22]), 11400 nM; in the assay with HLA-B*08:01 [11], 7240 nM; in the assay with HLA-B*15:01, 0.921 nM; in the assay with HLA-B*15:03 it was 0.92 nM.

For the sequence STYGISEDL, the Kd with HLA-B*15:17 (setting [24]) is 256 nM; in the assay with HLA-B*57:01 [10] (setting [24]), at least 20000 nM; with HLA-B*58:01 [9] (setting [24]), at least 20000 nM.

Turning to TASGKLVTQW, the Kd with HLA-B*57:01 [4] (setting [16]) stood at 1090 nM; in the assay with HLA-B*58:01 [5] (setting [16]), 22.6 nM.

For the sequence TWSIHAKHEW, the Kd with HLA-A*23:01 worked out at 1950 nM; in the assay with HLA-A*24:02, 39.9 nM; with HLA-B*58:01 [5] (setting [13]), 14.8 nM.

For WSSFKKNGAI, the dissociation constant (Kd) was determined as 1020 nM in the assay with HLA-B*57:01 [4] (setting [14]) and 5310 nM with HLA-B*58:01 [5] (setting [14]).

Regarding YGVLFSGVSW, in the assay with HLA-B*53:01 (setting [14]), the Kd turned out to be 261 nM.
